Data published in patent publication US20250179205A1 (Hoffmann-La Roche, published 2025).

Key:
human CD40 [1] = biological target: T1, human CD40 (human, UniProt P25942 21-277); test: cell-based or functional assay
human CD40 [2] = biological target: T1, human CD40; test: cell-based or functional assay; remark: listed apart in the source
human CD40 [3] = biological target: T1, human CD40; test: flow cytometry, Daudi cells, PE anti-human Fc F(ab')2
Procedure: (§1) The binding to cell surface CD40 was tested using Daudi cells, a human B lymphoblast cell line with high expression levels of human CD40 (ATCC CCL-213). Daudi cells were cultured with 1× Dulbecco's Modified Eagle's Medium (DMEM) (Gibco, Cat. No. 42430-025) supplemented with 10% Fetal Bovine Serum (FBS) (life technologies, Cat. No. 16140, Lot No. 1797306A). 0.3×10⁵ Daudi cells were added in 200 μl of 1×DMEM with 10% FBS to each well of a round-bottom 96-well plate (Greiner Bio-One, CELLSTAR®, Cat. No. 650185). Plates were centrifuged 5 minutes at 1700 rpm and supernatants were flicked off. Cells were washed once with 200 μL of 4° C. cold FACS buffer (eBioscience, Cat. No. 00-4222-26). All samples were resuspended in 50 μL/well of 4° C. cold FACS buffer containing the bispecific antigen binding molecules (primary antibody) or isotype control antibody DP47 at the indicated range of concentrations (in duplicates) and incubated for 120 minutes at 4° C. Afterwards the cells were washed three times with 200 μL 4° C. cold FACS buffer. Cells were further stained with 25 μL/well of 4° C. cold secondary antibody solution (1:50 dilution of secondary antibody) containing R-Phycoerythrin (PE) conjugated AffiniPure F(ab′)₂ Fragment Goat Anti-Human IgG, Fcγ Fragment Specific (Jackson ImmunoResearch, Cat. No. 109-116-098) and incubated for 60 minutes at 4° C. in the dark. Cells were washed with 200 μl FACS buffer and resuspended in 85 μL/well FACS-buffer containing 0.2 μg/mL DAPI (Roche, Cat. No. 10236276001) and acquired the same day using a 5-laser LSR-Fortessa (BD Bioscience with DIVA software). Data analysis was performed using the FlowJo version 10 software (FlowJo LLC).

[4] = biological target: T2, human fibroblast activation protein (huFAP) (human, UniProt Q12884 1-760); test: flow cytometry on NIH/3T3-huFAP clone 19 cells, PE-labelled anti-human IgG Fcgamma F(ab')2 secondary, MFI baseline corrected
T2 construct: expressed on transfected NIH/3T3-huFAP clone 19 cells; also called human FAP
Procedure: (§2) NIH/3T3-huFAP clone 19 and NIH/3T3-mFAP clone 26 were generated by the transfection of the mouse embryonic fibroblast NIH/3T3 cell line (ATCC CRL-1658) with the expression vector pETR4921 to express under 1.5 μg/mL Puromycin selection huFAP or mFAP, respectively.
as §1, with “NIH/3T3-huFAP, NIH/3T3-mFAP or NIH/3T3-wt” for “The binding to cell surface CD40 was tested using Daudi cells, a human B lymphoblast cell line with high expression levels of human CD40 (ATCC CCL-213). Daudi”, “1797306A). For the NIH/3T3-huFAP and NIH/3T3-mFAP cells 1.5 μg/mL Puromycin (Gibco, Cat. No. A11138-03) was added to the medium for selection of FAP-expressing cells. NIH/3T3 cells were removed from the plate by using enzyme-free Cell Dissociation Buffer (Gibco, Cat. No. 13151014).” for “1797306A).”, “NIH/3T3-huFAP clone 19, NIH/3T3-mFAP clone 26 or NIH/3T3-wt” for “Daudi cells”, “1×DMEM” for “1×DMEM with”, “using” for “using a”, “Data analysis was performed using the FlowJo version 10 software (FlowJo LLC).” left out

[5] = biological target: T3, mouse fibroblast activation protein (mFAP) (mouse, UniProt P97321 1-761); test: flow cytometry on NIH/3T3-mFAP cells (3T3_mFAP), PE-labelled anti-human IgG Fcgamma F(ab')2 secondary, MFI baseline corrected
T3 construct: expressed on transfected NIH/3T3-mFAP clone 26 cells; also called murine FAP; mouse FAP
Procedure: as §2
as §1, with “NIH/3T3-huFAP, NIH/3T3-mFAP or NIH/3T3-wt” for “The binding to cell surface CD40 was tested using Daudi cells, a human B lymphoblast cell line with high expression levels of human CD40 (ATCC CCL-213). Daudi”, “1797306A). For the NIH/3T3-huFAP and NIH/3T3-mFAP cells 1.5 μg/mL Puromycin (Gibco, Cat. No. A11138-03) was added to the medium for selection of FAP-expressing cells. NIH/3T3 cells were removed from the plate by using enzyme-free Cell Dissociation Buffer (Gibco, Cat. No. 13151014).” for “1797306A).”, “NIH/3T3-huFAP clone 19, NIH/3T3-mFAP clone 26 or NIH/3T3-wt” for “Daudi cells”, “1×DMEM” for “1×DMEM with”, “using” for “using a”

[6] = biological target: T2, human fibroblast activation protein …; test: flow cytometry, NIH/3T3-huFAP clone 19 cells, PE anti-human Fc F(ab')2
Procedure: as §2
as §1, with “NIH/3T3-huFAP, NIH/3T3-mFAP or NIH/3T3-wt” for “The binding to cell surface CD40 was tested using Daudi cells, a human B lymphoblast cell line with high expression levels of human CD40 (ATCC CCL-213). Daudi”, “1797306A). For the NIH/3T3-huFAP and NIH/3T3-mFAP cells 1.5 μg/mL Puromycin (Gibco, Cat. No. A11138-03) was added to the medium for selection of FAP-expressing cells. NIH/3T3 cells were removed from the plate by using enzyme-free Cell Dissociation Buffer (Gibco, Cat. No. 13151014).” for “1797306A).”, “NIH/3T3-huFAP clone 19, NIH/3T3-mFAP clone 26 or NIH/3T3-wt” for “Daudi cells”, “1×DMEM” for “1×DMEM with”, “using” for “using a”

[7] = biological target: T4, His-tagged human dimeric FAP (recombinant FAP_ECD) (human, UniProt Q12884 27-760); test: SPR (Biacore T200), His-tagged dimeric huFAP ECD captured by anti-His, antibody as analyte, 1:1 fit (avidity)
T4 construct: also called hu FAP ectodomain + poly-lys-tag + his6-tag
Procedure: The capacity of the bispecific constructs to bind human FAP was assessed by surface plasmon resonance (SPR). All SPR experiments were performed on a BIACORE® T200 (BIACORE®) at 25° C. with HBS-EP as running buffer (0.01 M HEPES pH 7.4, 0.15 M NaCl, 3 mM EDTA, 0.005% Surfactant P20, (BIACORE®).
His-tagged human dimeric FAP (recombinant FAP_ECD) was captured on a CM5 chip (GE Healthcare) immobilized with anti-His antibody (Qiagen Cat. No. 34660) by injection of 500 nM huFAP for 60 s at a flow rate of 10 uL/min, 10 nM murine FAP for 20 s at a flow rate of 20 uL/min and 10 nM cynoFAP for 20 s at a flow rate of 20 uL/min. Immobilization levels for the anti-His antibody of up to 18000 resonance units (RU) were used. Following the capture step, the bispecific antibodies as well as control molecules were immediately passed over the chip surface at a concentration ranging from 0.78-100 nM with a flow rate of […] for 280 s and a dissociation phase of 180 s. Bulk refractive index differences were corrected for by subtracting the response obtained in a reference flow cell, where no FAP was immobilized. Avidity was determined using the Langmuir 1:1 curve fitting. For bivalent binding the same 1:1 fitting was used leading to an apparent KD value.

T1 sequence (P25942 21-277 limits assumed): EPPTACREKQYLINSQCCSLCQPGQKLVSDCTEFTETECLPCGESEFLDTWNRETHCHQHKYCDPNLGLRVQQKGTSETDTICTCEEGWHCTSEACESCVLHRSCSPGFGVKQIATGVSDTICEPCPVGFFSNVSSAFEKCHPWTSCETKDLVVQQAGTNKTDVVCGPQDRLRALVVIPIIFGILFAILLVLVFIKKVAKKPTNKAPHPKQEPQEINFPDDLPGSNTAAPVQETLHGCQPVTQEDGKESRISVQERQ
T3 sequence (P97321 whole entry): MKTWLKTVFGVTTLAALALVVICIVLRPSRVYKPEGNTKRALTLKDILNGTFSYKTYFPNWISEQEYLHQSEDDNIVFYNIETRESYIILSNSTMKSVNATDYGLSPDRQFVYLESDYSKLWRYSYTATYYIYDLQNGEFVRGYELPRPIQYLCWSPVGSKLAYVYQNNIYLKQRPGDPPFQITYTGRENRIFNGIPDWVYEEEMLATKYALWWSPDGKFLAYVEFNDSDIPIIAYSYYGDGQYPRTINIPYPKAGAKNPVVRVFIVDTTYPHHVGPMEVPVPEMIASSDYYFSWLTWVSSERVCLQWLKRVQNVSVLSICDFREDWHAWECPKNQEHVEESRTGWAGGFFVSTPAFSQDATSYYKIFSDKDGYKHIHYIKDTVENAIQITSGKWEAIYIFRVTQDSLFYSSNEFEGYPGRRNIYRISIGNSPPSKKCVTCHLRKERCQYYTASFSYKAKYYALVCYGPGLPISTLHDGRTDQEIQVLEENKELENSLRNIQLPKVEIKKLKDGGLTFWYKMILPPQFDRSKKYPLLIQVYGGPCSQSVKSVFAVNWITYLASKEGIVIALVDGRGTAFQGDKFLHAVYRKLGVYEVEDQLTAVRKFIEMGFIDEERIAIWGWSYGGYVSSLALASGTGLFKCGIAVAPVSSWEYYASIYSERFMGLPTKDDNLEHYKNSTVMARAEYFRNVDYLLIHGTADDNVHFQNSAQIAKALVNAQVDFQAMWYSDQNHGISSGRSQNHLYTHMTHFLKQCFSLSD

Binder | EC50 (human CD40 [3]) [nM] | binding result [4] | binding result [5] | EC50 [6] [nM] | EC50 (read off the curve) [5] [nM] | also measured
P1AD4574 CD40 × DP47 (4 + 1) (bispecific antibody, also called huCD40-DP47) heavy 1: not shown heavy 2: not shown light: DIQMTQSPSSLSASVGDRVTITCRSSQSLVHSNGNTFLHWYQQKPGKAPKLLIYTVSNRFSGVPSRFSGSGSGTDFTLTISSLQPEDFATYFCSQTTHVPWTFGQGTKVEIKRTVAAPSVFIFPPSDEQLKSGTASVVCLLNNFYPREAKVQWKVDNALQSGNSQESVTEQDSKDSTYSLSSTLTLSKADYEKHKVYACEVTHQGLSSPVTKSFNRGEC | 0.031 | no binding (tested: 500 nM) | no binding (tested: 500 nM) | – | – | EC50, activation of human Daudi cells (CD70 expression) with FAP-coated Dynabeads (human CD40 [1]): 0.166 nM; EC50, activation of HEK-Blue CD40L cells (SEAP) with murine FAP-coated Dynabeads (human CD40 [2]): 0.421 nM
P1AE0192 CD40 × FAP (28H1) (1 + 1) Crossmab (bispecific antibody, human IgG1, kappa, L234A L235A, monovalent for CD40 and for FAP; also called CD40 × FAP 1 + 1; 1+1 format) heavy 1: not shown heavy 2: EVQLVESGGGLVQPGGSLRLSCAASGYSFTGYYIHWVRQAPGKGLEWVARVIPNAGGTSYNQKFKGRFTLSVDNSKNTAYLQMNSLRAEDTAVYYCAREGIYWWGQGTLVTVSSASTKGPSVFPLAPSSKSTSGGTAALGCLVEDYFPEPVTVSWNSGALTSGVHTFPAVLQSSGLYSLSSVVTVPSSSLGTQTYICNVNHKPSNTKVDEKVEPKSCDKTHTCPPCPAPEAAGGPSVFLFPPKPKDTLMISRTPEVTCVVVDVSHEDPEVKFNWYVDGVEVHNAKTKPREEQYNSTYRVVSVLTVLHQDWLNGKEYKCKVSNKALGAPIEKTISKAKGQPREPQVCTLPPSRDELTKNQVSLSCAVKGFYPSDIAVEWESNGQPENNYKTTPPVLDSDGSFFLVSKLTVDKSRWQQGNVFSCSVMHEALHNRFTQKSLSLSPGK light 1: DIQMTQSPSSLSASVGDRVTITCRSSQSLVHSNGNTFLHWYQQKPGKAPKLLIYTVSNRFSGVPSRFSGSGSGTDFTLTISSLQPEDFATYFCSQTTHVPWTFGQGTKVEIKRTVAAPSVFIFPPSDRKLKSGTASVVCLLNNFYPREAKVQWKVDNALQSGNSQESVTEQDSKDSTYSLSSTLTLSKADYEKHKVYACEVTHQGLSSPVTKSFNRGEC light 2: EVQLLESGGGLVQPGGSLRLSCAASGFTFSSHAMSWVRQAPGKGLEWVSAIWASGEQYYADSVKGRFTISRDNSKNTLYLQMNSLRAEDTAVYYCAKGWLGNFDYWGQGTLVTVSSASVAAPSVFIFPPSDEQLKSGTASVVCLLNNFYPREAKVQWKVDNALQSGNSQESVTEQDSKDSTYSLSSTLTLSKADYEKHKVYACEVTHQGLSSPVTKSFNRGEC | – | – | – | 1.15 | ~1 | Kd [7]: 2.2 nM; koff [7]: 0.00145 s⁻¹; kon [7]: 663000 M⁻¹ s⁻¹
P1AD4465 CD40 × DP47 (4 + 2) (bispecific antibody, also called huCD40-DP47) heavy: not shown light 1: DIQMTQSPSSLSASVGDRVTITCRSSQSLVHSNGNTFLHWYQQKPGKAPKLLIYTVSNRFSGVPSRFSGSGSGTDFTLTISSLQPEDFATYFCSQTTHVPWTFGQGTKVEIKRTVAAPSVFIFPPSDRKLKSGTASVVCLLNNFYPREAKVQWKVDNALQSGNSQESVTEQDSKDSTYSLSSTLTLSKADYEKHKVYACEVTHQGLSSPVTKSFNRGEC light 2: not shown | 0.036 | no binding (tested: 500 nM) | no binding (tested: 500 nM) | – | – | –
P1AD4455 CD40 × FAP (28H1) (4 + 2) (bispecific antibody, human IgG1, kappa, L234A L235A, tetravalent for CD40, bivalent for FAP; also called CD40 × FAP 4 + 2; huCD40-28H1) heavy: not shown light 1: DIQMTQSPSSLSASVGDRVTITCRSSQSLVHSNGNTFLHWYQQKPGKAPKLLIYTVSNRFSGVPSRFSGSGSGTDFTLTISSLQPEDFATYFCSQTTHVPWTFGQGTKVEIKRTVAAPSVFIFPPSDRKLKSGTASVVCLLNNFYPREAKVQWKVDNALQSGNSQESVTEQDSKDSTYSLSSTLTLSKADYEKHKVYACEVTHQGLSSPVTKSFNRGEC light 2: EVQLLESGGGLVQPGGSLRLSCAASGFTFSSHAMSWVRQAPGKGLEWVSAIWASGEQYYADSVKGRFTISRDNSKNTLYLQMNSLRAEDTAVYYCAKGWLGNFDYWGQGTLVTVSSASVAAPSVFIFPPSDEQLKSGTASVVCLLNNFYPREAKVQWKVDNALQSGNSQESVTEQDSKDSTYSLSSTLTLSKADYEKHKVYACEVTHQGLSSPVTKSFNRGEC | – | – | – | 3.64 | ~4 | EC50 (read off the curve) [4]: ~4 nM
P1AA9663 CD40 × FAP (28H1) (2 + 2) (bispecific antibody, human IgG1, kappa, L234A L235A, bivalent for CD40 and for FAP; also called CD40 × FAP 2 + 2; huCD40-28H1) heavy: not shown light 1: DIQMTQSPSSLSASVGDRVTITCRSSQSLVHSNGNTFLHWYQQKPGKAPKLLIYTVSNRFSGVPSRFSGSGSGTDFTLTISSLQPEDFATYFCSQTTHVPWTFGQGTKVEIKRTVAAPSVFIFPPSDRKLKSGTASVVCLLNNFYPREAKVQWKVDNALQSGNSQESVTEQDSKDSTYSLSSTLTLSKADYEKHKVYACEVTHQGLSSPVTKSFNRGEC light 2: EVQLLESGGGLVQPGGSLRLSCAASGFTFSSHAMSWVRQAPGKGLEWVSAIWASGEQYYADSVKGRFTISRDNSKNTLYLQMNSLRAEDTAVYYCAKGWLGNFDYWGQGTLVTVSSASVAAPSVFIFPPSDEQLKSGTASVVCLLNNFYPREAKVQWKVDNALQSGNSQESVTEQDSKDSTYSLSSTLTLSKADYEKHKVYACEVTHQGLSSPVTKSFNRGEC | – | – | – | 3.65 | ~4 | –
